Laboratory results taken from US20190076400A1 (PROTAGONIST THERAPEUTICS, published 2019).
Square brackets hold non-standard residues; d marks the D form. Phe(2,6-Me2,4-CONH2) = Cc1cc(C(N)=O)cc(C)c1C[C@H](N)C(=O)O; Phe(3,4-(OMe)2) = COc1ccc(C[C@H](N)C(=O)O)cc1OC; Phe(3,4-Cl2) = N[C@@H](Cc1ccc(Cl)c(Cl)c1)C(=O)O; Trp(5-OH) = N[C@@H](Cc1c[nH]c2ccc(O)cc12)C(=O)O; Phe(4-COOH) = N[C@@H](Cc1ccc(C(=O)O)cc1)C(=O)O; Phe(4-tBu) = CC(C)(C)c1ccc(C[C@H](N)C(=O)O)cc1; Dip = N[C@H](C(=O)O)C(c1ccccc1)c1ccccc1; Phe(4-F) = N[C@@H](Cc1ccc(F)cc1)C(=O)O; Dmt = Cc1cc(O)cc(C)c1C[C@H](N)C(=O)O; NMeR = CN[C@@H](CCCNC(=N)N)C(=O)O; dNMeF = CN[C@H](Cc1ccccc1)C(=O)O; hPhe = N[C@@H](CCc1ccccc1)C(=O)O; αMeF = C[C@](N)(Cc1ccccc1)C(=O)O; Tic = O=C(O)[C@@H]1Cc2ccccc2CN1; β3hF = N[C@H](CC(=O)O)Cc1ccccc1; N(octyl)Gly = CCCCCCCCNCC(=O)O; Nle = CCCC[C@H](N)C(=O)O; THP = not defined here; Aib = CC(C)(N)C(=O)O; βAla = NCCC(=O)O; Sar = CNCC(=O)O

B1: H-DMT-r-F-alpha-MePhe-NH2 (peptide)
peptide: H-[Dmt][dR]F[αMeF]-NH2
SMILES: Cc1cc(O)cc(C)c1C[C@H](N)C(=O)N[C@H](CCCNC(=N)N)C(=O)N[C@@H](Cc1ccccc1)C(=O)N[C@@](C)(Cc1ccccc1)C(N)=O
B2: H-DMT-r-F-L-NH2 (peptide)
peptide: H-[Dmt][dR]FL-NH2
SMILES: Cc1cc(O)cc(C)c1C[C@H](N)C(=O)N[C@H](CCCNC(=N)N)C(=O)N[C@@H](Cc1ccccc1)C(=O)N[C@@H](CC(C)C)C(N)=O
B3: H-DMT-a-Val-bhF-Sar-NH2 (peptide)
peptide: H-[Dmt][dA]V[β3hF][Sar]-NH2
SMILES: Cc1cc(O)cc(C)c1C[C@H](N)C(=O)N[C@H](C)C(=O)N[C@H](C(=O)N[C@H](CC(=O)N(C)CC(N)=O)Cc1ccccc1)C(C)C
B4: H-DMT-r-Phe(3,4-diCl)-Sar-NH2 (peptide)
peptide: H-[Dmt][dR][Phe(3,4-Cl2)][Sar]-NH2
SMILES: Cc1cc(O)cc(C)c1C[C@H](N)C(=O)N[C@H](CCCNC(=N)N)C(=O)N[C@@H](Cc1ccc(Cl)c(Cl)c1)C(=O)N(C)CC(N)=O
B5: H-Phe(DMC)-a-G-bhF-Gly-NH2 (peptide)
peptide: H-[Phe(2,6-Me2,4-CONH2)][dA]G[β3hF]G-NH2
SMILES: Cc1cc(C(N)=O)cc(C)c1C[C@H](N)C(=O)N[C@H](C)C(=O)NCC(=O)N[C@H](CC(=O)NCC(N)=O)Cc1ccccc1
B6: H-DMT-r-DPA-Sar-NH2 (Seq. ID 26) (peptide)
peptide: H-[Dmt][dR][Dip][Sar]-NH2
SMILES: Cc1cc(O)cc(C)c1C[C@H](N)C(=O)N[C@H](CCCNC(=N)N)C(=O)N[C@H](C(=O)N(C)CC(N)=O)C(c1ccccc1)c1ccccc1
B7: H-DMT-r-F-Phe(3,4-diOMe)-NH2 (peptide)
peptide: H-[Dmt][dR]F[Phe(3,4-(OMe)2)]-NH2
SMILES: COc1ccc(C[C@H](NC(=O)[C@H](Cc2ccccc2)NC(=O)[C@@H](CCCNC(=N)N)NC(=O)[C@@H](N)Cc2c(C)cc(O)cc2C)C(N)=O)cc1OC
B8: H-DMT-r-F-HomoPhe-NH2 (peptide)
peptide: H-[Dmt][dR]F[hPhe]-NH2
SMILES: Cc1cc(O)cc(C)c1C[C@H](N)C(=O)N[C@H](CCCNC(=N)N)C(=O)N[C@@H](Cc1ccccc1)C(=O)N[C@@H](CCc1ccccc1)C(N)=O
B9: H-DMT-r-F-Octyl Gly-NH2 (peptide)
peptide: H-[Dmt][dR]F[N(octyl)Gly]-NH2
SMILES: CCCCCCCCN(CC(N)=O)C(=O)[C@H](Cc1ccccc1)NC(=O)[C@@H](CCCNC(=N)N)NC(=O)[C@@H](N)Cc1c(C)cc(O)cc1C
B10: H-Phe(DMC)-(D)Asp-G-bhF-Sar-NH2 (peptide)
peptide: H-[Phe(2,6-Me2,4-CONH2)][dD]G[β3hF][Sar]-NH2
SMILES: Cc1cc(C(N)=O)cc(C)c1C[C@H](N)C(=O)N[C@H](CC(=O)O)C(=O)NCC(=O)N[C@H](CC(=O)N(C)CC(N)=O)Cc1ccccc1
B11: H-DMT-r-Tic-Sar-NH2 (peptide)
peptide: H-[Dmt][dR][Tic][Sar]-NH2
SMILES: Cc1cc(O)cc(C)c1C[C@H](N)C(=O)N[C@H](CCCNC(=N)N)C(=O)N1Cc2ccccc2C[C@H]1C(=O)N(C)CC(N)=O
B12: H-DMT-r-4-tBu-Phe-Sar-NH2 (peptide)
peptide: H-[Dmt][dR][Phe(4-tBu)][Sar]-NH2
SMILES: Cc1cc(O)cc(C)c1C[C@H](N)C(=O)N[C@H](CCCNC(=N)N)C(=O)N[C@@H](Cc1ccc(C(C)(C)C)cc1)C(=O)N(C)CC(N)=O
B13: H-DMT-r-F-Nle-NH2 (peptide)
peptide: H-[Dmt][dR]F[Nle]-NH2
SMILES: CCCC[C@H](NC(=O)[C@H](Cc1ccccc1)NC(=O)[C@@H](CCCNC(=N)N)NC(=O)[C@@H](N)Cc1c(C)cc(O)cc1C)C(N)=O
B14: H-DMT-N(Me)Arg-G-bhF-Sar-NH2 (peptide)
peptide: H-[Dmt][NMeR]G[β3hF][Sar]-NH2
SMILES: Cc1cc(O)cc(C)c1C[C@H](N)C(=O)N(C)[C@@H](CCCNC(=N)N)C(=O)NCC(=O)N[C@H](CC(=O)N(C)CC(N)=O)Cc1ccccc1
B15: H-Phe(DMC)-N(Me)Arg-G-bhF-Sar-NH2 (peptide)
peptide: H-[Phe(2,6-Me2,4-CONH2)][NMeR]G[β3hF][Sar]-NH2
SMILES: Cc1cc(C(N)=O)cc(C)c1C[C@H](N)C(=O)N(C)[C@@H](CCCNC(=N)N)C(=O)NCC(=O)N[C@H](CC(=O)N(C)CC(N)=O)Cc1ccccc1
B16: H-Phe(DMC)-Aib-G-bhF-Sar-NH2 (peptide)
peptide: H-[Phe(2,6-Me2,4-CONH2)][Aib]G[β3hF][Sar]-NH2
SMILES: Cc1cc(C(N)=O)cc(C)c1C[C@H](N)C(=O)NC(C)(C)C(=O)NCC(=O)N[C@H](CC(=O)N(C)CC(N)=O)Cc1ccccc1
B17: H-DMT-r-Phe(3,4-diOMe)-Sar-NH2 (peptide)
peptide: H-[Dmt][dR][Phe(3,4-(OMe)2)][Sar]-NH2
SMILES: COc1ccc(C[C@H](NC(=O)[C@@H](CCCNC(=N)N)NC(=O)[C@@H](N)Cc2c(C)cc(O)cc2C)C(=O)N(C)CC(N)=O)cc1OC
B18: H-DMT-r-F-(D)N(Me)Phe-NH2 (peptide)
peptide: H-[Dmt][dR]F[dNMeF]-NH2
SMILES: Cc1cc(O)cc(C)c1C[C@H](N)C(=O)N[C@H](CCCNC(=N)N)C(=O)N[C@@H](Cc1ccccc1)C(=O)N(C)[C@H](Cc1ccccc1)C(N)=O

molecular target: δ-opioid receptor (DOR), Human-ORPD1 (human, UniProt P41143 1-372); assay: cell-based or functional assay
Sequence (P41143 whole entry, stated change not applied): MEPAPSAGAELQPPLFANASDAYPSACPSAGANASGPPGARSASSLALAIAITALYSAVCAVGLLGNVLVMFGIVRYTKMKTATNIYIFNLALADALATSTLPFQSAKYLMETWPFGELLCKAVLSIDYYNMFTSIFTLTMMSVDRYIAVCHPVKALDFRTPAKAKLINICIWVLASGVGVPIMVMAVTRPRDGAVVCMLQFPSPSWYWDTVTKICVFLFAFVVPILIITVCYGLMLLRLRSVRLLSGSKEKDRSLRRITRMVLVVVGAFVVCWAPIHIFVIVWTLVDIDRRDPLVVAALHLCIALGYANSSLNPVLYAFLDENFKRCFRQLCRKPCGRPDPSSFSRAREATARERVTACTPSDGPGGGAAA

| Binder | DOR EC50 |
| --- | --- |
| B1 | ≤ 10 nM |
| B2 | ≤ 50 nM |
| B3 | ≤ 200 nM |
| H-[Dmt][dA][βAla][β3hF][Sar]-NH2 [H-DMT-a-bAla-bhF-Sar-NH2] | ≤ 200 nM |
| H-[Dmt][dA][THP][β3hF][Sar]-NH2 (reading uncertain; also: printed as H-DMT-a-THP-bhF-Sar-NH2) [H-DMT-a-THP-bhF-Sar-NH2] | ≤ 200 nM |
| B4 | ≤ 50 nM |
| B5 | ≤ 10 nM |
| H-[Phe(2,6-Me2,4-CONH2)]AG[β3hF][Sar]-OH [H-Phe(DMC)-A-G-bhF-Sar-OH] | ≤ 200 nM |
| H-[Phe(2,6-Me2,4-CONH2)][dA]G[Tic][Sar]-NH2 [H-Phe(DMC)-a-G-Tic-Sar-NH2] | ≤ 50 nM |
| B6 | > 200 nM |
| B7 | ≤ 10 nM |
| H-[Dmt][dR]F[Phe(4-F)]-NH2 [H-DMT-r-F-Phe(4-F)-NH2] | ≤ 50 nM |
| B8 | ≤ 10 nM |
| H-[Trp(5-OH)][dA]G[β3hF][Sar]-NH2 [H-Trp(5-OH)-a-G-bhF-Sar-NH2] | ≤ 200 nM |
| B9 | ≤ 200 nM |
| B10 | ≤ 1 nM |
| B11 | > 200 nM |
| B12 | > 200 nM |
| B13 | ≤ 50 nM |
| B14 | ≤ 200 nM |
| H-[Phe(4-tetrazolyl)][dA]G[β3hF][Sar]-NH2 [H-Phe(4-tetrazolyl)-a-G-bhF-Sar-NH2] | ≤ 200 nM |
| B15 | ≤ 200 nM |
| H-[Phe(4-COOH)][dA]G[β3hF][Sar]-NH2 [H-Phe(4-COOH)-a-G-bhF-Sar-NH2] | ≤ 200 nM |
| B16 | ≤ 50 nM |
| B17 | > 200 nM |
| H-[Dmt][dR][BIP][Sar]-NH2 [H-DMT-r-BIP-Sar-NH2] | ≤ 1 nM |
| B18 | ≤ 50 nM |
